We go through 1 molecule from paper PMC4163015 (Cell, 2014).

The experiment has as its target T1, heterodimeric cofactor Ufd1p/Npl4p (S. cerevisiae, UniProt P53044 1-361; P33755 1-580).
T1 sequence (looked up) 1: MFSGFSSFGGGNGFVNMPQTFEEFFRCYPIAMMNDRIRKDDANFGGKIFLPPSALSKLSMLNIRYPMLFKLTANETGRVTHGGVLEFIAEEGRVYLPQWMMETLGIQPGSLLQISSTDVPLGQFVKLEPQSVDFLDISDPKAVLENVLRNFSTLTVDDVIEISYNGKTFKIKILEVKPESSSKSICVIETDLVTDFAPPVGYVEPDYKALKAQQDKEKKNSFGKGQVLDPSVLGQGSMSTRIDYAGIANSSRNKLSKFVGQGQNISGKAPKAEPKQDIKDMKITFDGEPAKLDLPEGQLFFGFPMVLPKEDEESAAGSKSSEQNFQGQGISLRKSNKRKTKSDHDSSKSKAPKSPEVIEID
T1 sequence (looked up) 2: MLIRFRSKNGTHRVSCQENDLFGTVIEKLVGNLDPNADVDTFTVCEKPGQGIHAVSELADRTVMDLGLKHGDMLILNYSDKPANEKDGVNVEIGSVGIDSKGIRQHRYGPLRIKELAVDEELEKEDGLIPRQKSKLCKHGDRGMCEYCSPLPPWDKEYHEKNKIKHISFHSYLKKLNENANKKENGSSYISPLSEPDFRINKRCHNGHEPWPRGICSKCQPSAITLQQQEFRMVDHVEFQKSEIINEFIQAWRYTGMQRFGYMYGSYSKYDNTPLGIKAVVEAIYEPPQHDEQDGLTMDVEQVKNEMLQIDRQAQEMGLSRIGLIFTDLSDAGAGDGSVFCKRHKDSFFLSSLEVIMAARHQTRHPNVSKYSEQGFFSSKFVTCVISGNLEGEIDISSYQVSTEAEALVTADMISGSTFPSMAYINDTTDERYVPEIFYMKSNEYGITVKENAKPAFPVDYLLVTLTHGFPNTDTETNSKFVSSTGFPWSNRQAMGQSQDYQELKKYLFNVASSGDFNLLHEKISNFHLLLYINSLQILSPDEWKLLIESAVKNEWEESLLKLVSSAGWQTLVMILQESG
Kind of experiment: SEC.

B1: Cdc48p ATPase (enzyme, S. cerevisiae, UniProt P25694 1-835, looked up)
chain: MGEEHKPLLDASGVDPREEDKTATAILRRKKKDNMLLVDDAINDDNSVIAINSNTMDKLELFRGDTVLVKGKKRKDTVLIVLIDDELEDGACRINRVVRNNLRIRLGDLVTIHPCPDIKYATRISVLPIADTIEGITGNLFDVFLKPYFVEAYRPVRKGDHFVVRGGMRQVEFKVVDVEPEEYAVVAQDTIIHWEGEPINREDEENNMNEVGYDDIGGCRKQMAQIREMVELPLRHPQLFKAIGIKPPRGVLMYGPPGTGKTLMARAVANETGAFFFLINGPEVMSKMAGESESNLRKAFEEAEKNAPAIIFIDEIDSIAPKRDKTNGEVERRVVSQLLTLMDGMKARSNVVVIAATNRPNSIDPALRRFGRFDREVDIGIPDATGRLEVLRIHTKNMKLADDVDLEALAAETHGYVGADIASLCSEAAMQQIREKMDLIDLDEDEIDAEVLDSLGVTMDNFRFALGNSNPSALRETVVESVNVTWDDVGGLDEIKEELKETVEYPVLHPDQYTKFGLSPSKGVLFYGPPGTGKTLLAKAVATEVSANFISVKGPELLSMWYGESESNIRDIFDKARAAAPTVVFLDELDSIAKARGGSLGDAGGASDRVVNQLLTEMDGMNAKKNVFVIGATNRPDQIDPAILRPGRLDQLIYVPLPDENARLSILNAQLRKTPLEPGLELTAIAKATQGFSGADLLYIVQRAAKYAIKDSIEAHRQHEAEKEVKVEGEDVEMTDEGAKAEQEPEVDPVPYITKEHFAEAMKTAKRSVSDAELRRYEAYSQQMKASRGQFSNFNFNDAPLGTTATDNANSNNSAPSGAGAAFGSNAEEDDDLYS
Consider B1, for which the binding result is listed as “binds”.
